Each block holds one binder with its values, some of them ahead of it. Ends that are not written are not given here.
Assays:
[1] = biological target: T1, GluR2, native protein in PSD preparations (rat, UniProt P19491 22-883, limits assumed); assay: co-immunoprecipitation from PSD preparations with anti-GluR2, probed with anti-ND2
T1 construct: also called AMPA receptor complex

[2] = biological target: T2, potassium channel Kv3.1, native protein in PSD preparations (rat, UniProt P25122 1-585); assay: co-immunoprecipitation from PSD preparations with anti-Kv3.1, probed with anti-ND2
T2 sequence (looked up): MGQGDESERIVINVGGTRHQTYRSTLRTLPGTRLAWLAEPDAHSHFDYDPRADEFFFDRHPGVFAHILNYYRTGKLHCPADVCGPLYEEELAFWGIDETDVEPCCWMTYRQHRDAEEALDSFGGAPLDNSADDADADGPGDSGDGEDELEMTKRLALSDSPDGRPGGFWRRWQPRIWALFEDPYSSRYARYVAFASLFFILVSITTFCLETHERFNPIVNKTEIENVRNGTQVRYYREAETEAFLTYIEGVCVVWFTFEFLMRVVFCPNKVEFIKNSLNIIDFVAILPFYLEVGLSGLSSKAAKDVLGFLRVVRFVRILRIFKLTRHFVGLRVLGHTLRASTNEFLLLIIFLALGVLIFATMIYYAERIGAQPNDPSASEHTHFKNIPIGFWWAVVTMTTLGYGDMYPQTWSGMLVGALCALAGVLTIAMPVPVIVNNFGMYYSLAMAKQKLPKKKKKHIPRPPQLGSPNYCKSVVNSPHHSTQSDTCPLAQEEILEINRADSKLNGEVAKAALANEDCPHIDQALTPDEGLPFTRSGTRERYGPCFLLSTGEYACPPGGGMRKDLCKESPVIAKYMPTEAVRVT

[3] = biological target: non-receptor tyrosine kinase Src, native protein in brain lysates, PSD preparations, hippocampal neurons and … (rat, UniProt Q9WUD9 2-536, limits assumed); assay: GST pull-down from PSD preparations, immunoblot
[4] = biological target: T3, recombinant Src unique domain (biotinylated probe) (murine (n-Src), UniProt P12931 5-83 (human entry), biotinylated); assay: blot of ND2-GST fusion proteins probed with biotinylated Src unique domain, streptavidin-HRP
T3 construct: also called unique domain of Src; Src unique domain protein; not shown: GST tag of vector pGEX2T'6; purified as GST fusion protein

T1 sequence (P19491 22-883 limits assumed): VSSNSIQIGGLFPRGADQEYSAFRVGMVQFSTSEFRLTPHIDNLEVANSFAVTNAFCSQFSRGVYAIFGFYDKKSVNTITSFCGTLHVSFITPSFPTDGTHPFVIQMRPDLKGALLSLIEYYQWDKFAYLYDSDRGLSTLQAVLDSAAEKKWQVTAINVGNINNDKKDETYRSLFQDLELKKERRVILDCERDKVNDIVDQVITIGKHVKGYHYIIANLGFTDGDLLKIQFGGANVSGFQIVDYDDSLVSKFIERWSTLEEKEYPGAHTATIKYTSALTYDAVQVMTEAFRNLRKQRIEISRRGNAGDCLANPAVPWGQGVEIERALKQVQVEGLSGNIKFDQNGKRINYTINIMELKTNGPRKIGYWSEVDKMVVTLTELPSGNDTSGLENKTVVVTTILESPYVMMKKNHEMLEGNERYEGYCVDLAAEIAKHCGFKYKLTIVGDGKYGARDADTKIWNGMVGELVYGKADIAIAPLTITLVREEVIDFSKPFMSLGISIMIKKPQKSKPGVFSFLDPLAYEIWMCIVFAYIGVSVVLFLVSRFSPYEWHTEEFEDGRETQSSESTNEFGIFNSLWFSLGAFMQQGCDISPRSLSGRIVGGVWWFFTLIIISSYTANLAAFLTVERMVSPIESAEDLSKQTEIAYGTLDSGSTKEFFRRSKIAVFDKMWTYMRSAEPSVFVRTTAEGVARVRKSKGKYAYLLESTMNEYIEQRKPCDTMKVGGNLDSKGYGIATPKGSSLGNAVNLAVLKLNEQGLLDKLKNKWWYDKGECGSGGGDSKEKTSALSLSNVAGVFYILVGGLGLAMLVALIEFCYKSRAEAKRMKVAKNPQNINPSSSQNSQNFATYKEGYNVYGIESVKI

binding result [1]: no binding
binding result [2]: no binding
B1: NADH dehydrogenase subunit 2 (ND2), native protein in brain lysates, PSD preparations, hippocampal neurons and tissues (other, UniProt P11662 1-346, looked up)
chain: MNPITLIIIYFTILMGPVITMSSSNLLLMWVGLEMSLLAIIPLLANKKSPRSTEAATKYFLTQATASMIILLVIILNYKQSGMWTLQQQTNNMLLNMMLISLAMKLGLAPFHYWLPEVTQGIPLHIGLILLTWQKIAPLSILYQFYQLLNPTITTILAISSVFVGAWGGLNQTQTRKIMAYSSIAHMGWMTAILPYNPNLTLLNLTIYILLTVPMFITLMTNSATTINTLSLAWNKTPMILTMTSIILLSLGGLPPLTGFLPKWAIISELLKNNCSTLSTLMAIMALLSLFFYTRLIYSMSLTMFPTNNNSKMISHHHQNPKHNFILPTLTVLSTLTLPLSSQLIT

binding result [3]: no binding
binding result [4]: no binding
B2: ND2.2-GST fusion protein (amino acids 189-238 of human ND2) (other)
chain: WMMAVLPYNPNMTILNLTIYIILTTTAFLLLNLNSSTTTLLLSRTWNKLT
modifications: also: fused to GST tag of pGEX vector, sequence and linker not given here
notes: not shown: glutathione S-transferase (GST) tag of vector pGEX4T-1

binding result [3]: no binding
B3: ND2.3-GST fusion protein (amino acids 1-188 of human ND2) (other)
chain: MNPLAQPVIYSTIFAGTLITALSSHWFFTWVGLEMNMLAFIPVLTKKMNPRSTEAAIKYFLTQATASMILLMAILFNNMLSGQWTMTNTTNQYSSLMIMMAMAMKLGMAPFHFWVPEVTQGTPLTSGLLLLTWQKLAPISIMYQISPSLNVSLLLTLSILSIMAGSWGGLNQTQLRKILAYSSITHMG
notes: as for B2

Source: US20070059320A1 (HOSPITAL FOR SICK CHILDREN, published 2007)
